This series in a line: yeast display, Sf9 membrane polyspecificity reagent, FACS + sequencing; frameworks hold sequencing errors. Put shortly: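 Synthetic nanobody libraries on Saccharomyces cerevisiae BJ5465 were galactose-induced for 36–48 hours, stained 1 hour at 4 °C with 10% biotinylated, detergent-solubilized Sf9 membrane reagent and enriched on streptavidin microbeads. FACS then separated cells into low and high (top ~1%) gates by anti-HA (expression) and streptavidin (reagent binding) fluorescence. Genes were colony-PCR amplified, MiSeq 2 × 250 sequenced and CDR-length filtered. A clone's polyreactivity label is that of its gate of origin.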
Consider “QVQLVESGGGLVQAGGSLRLSCAASGLILRRYAMGWYRQAPGKDRELVAAISWSGGRTYYADSVKGRFTISRDNAKNTVYLQMISLKPEDTAVYYCAAGYIYWYYSYDYWGQGTQGTVSS”, for which the “polyreactivity (PSR sort gate)” value is reported as “high polyreactivity”.

With “QVQLVESGGGLVQAGGSLRLSCAASGLILSAYAMGWYRQAPGKERELVAAISKRGGSTYYADSVKGRFTISRDNAKNTVYSQMNSLKPEDTAVYYCAADYTKHYWGQGTQVTVSS”, the “polyreactivity (PSR sort gate)” value was “high polyreactivity”. As to “QVQLVESGGGLVQAGGSLRLSCAASGLILSTYAMGWYRQAPGKERELVAAITWRSGSTYYADSVKGRFTISRDNAKNTVYLQMNSLKPEDTAVYYCNVAPTFPYNGYEYWGQGTQVTVSS”, the “polyreactivity (PSR sort gate)” value is given as “high polyreactivity”. For “QVQLVESGGGLVQAGGSLRLSCAASGLILVYYAMGWYRQAPGKERELVAAITPGGSTKYADSVKGRFTISRDNAKNTVYFQMNSLKPEDTAVYYCAVDGDWHEPGNYIYEYDYWGQGTQVTVSS” the value was “low polyreactivity”; for “QVQLVESGGGLVQAGGSLRLSCAASGLILYHYAMGWYREAPGKERELVAAISSGGITHYADSVKGRFTISRDNAKNTVYLQMNILKPEDNAVYYCNAVSYYWHDFDYWGQGTQVTVSS”, “high polyreactivity”. The result for “QVQLVESGGGLVQAGGSLRLSCAASGLILYSYAMGWYRQAPGKERELVADISSGGITNYADSVKGRFTISRDNAKNTVYLQMNSLKPEDTAFYYCNADSYGGNLYIWEYYYWGQGTQVTVSS” reads “low polyreactivity”. The result for “QVQLVESGGGLVQAGGSLRLSCAASGLILYSYAMGWYRQAPGKERELVADISSGGITNYADSVKGRFTISRDNAKNTVYLQMNSLKPEDTAVYYCAADTRPVNYILYDYWGQGTQVTVSS” reads “low polyreactivity”. Turning to “QVQLVESGGGLVQAGGSLRLSCAASGLILYSYTMGRYRHAPGKERELVAVISRSGTSTYYADSVKGRFTISRDNAKNTVYLQMNSLKREDTSFYFCAALSRSGPYAYEYWGQGTQVSVSS”, the “polyreactivity (PSR sort gate)” value is listed as “high polyreactivity”.

Take “QVQLVESGGGLVQAGGSLRLSCAASGLIQPYYTMGWYRQAPGKERELVAAIRRTTGSTFYADSVKGRFTISRDNAKNTVYLQMNSLKPEETAVYYCNVRRTPYSHWTGGGMDYWGQGTQVTVSS”: the “polyreactivity (PSR sort gate)” value is given as “high polyreactivity”. Consider “QVQLVESGGGLVQAGGSLRLSCAASGLISLYYAMGWYRQAPGKERELVARITGSGGDTYYADSVKGRFTISRDNAKNTVYLQMNSLKPEDTAVSYCAAPALDWGQGTQVTVSS”, for which the “polyreactivity (PSR sort gate)” value was “low polyreactivity”. Turning to “QVQLVESGGGLVQAGGSLRLSCAASGLISRINAMGWYRQAPGKERELVAAISSGGSTNYADSVKGRFTISRDNAKNTVYLQMNSLKPEDTAVYYCAAGYIRKYSAFRYNYWGQGTQVTVSS”, the “polyreactivity (PSR sort gate)” value is on record as “high polyreactivity”. In the case of “QVQLVESGGGLVQAGGSLRLSCAASGLISRRNAMGWYRQAPGKERELVAAISTGSSTNYADSVKGRFTLSRDNAKNTVYLQMNSLKPEDSAVYYCAATQYWWSTLGIRDDYWGQGTQVTVSS”, the “polyreactivity (PSR sort gate)” value is listed as “low polyreactivity”.

With “QVQLVESGGGLVQAGGSLRLSCAASGLLFGRNVMGWYRQGPGKERELVAAISWSGGRTYYADSVKGRFTISRDNAKNTVYLQMNSLKPEDTAVYYCAADDGPGFDYWGQGTQVTESS”, the “polyreactivity (PSR sort gate)” value was “high polyreactivity”. “QVQLVESGGGLVQAGGSLRLSCAASGLNFKLYAMGWYRQAPGKEREFVATITGIGGSTYYADSVKGRFTISRDNAKNTVYLQMNSLKPEVTAVYYCAGDAWFLPYNYWGQGTQVTVSS”: the “polyreactivity (PSR sort gate)” value is “low polyreactivity”. For “QVQLVESGGGLVQAGGSLRLSCAASGLNFSGYAMGWYRQAPGKESEMVAAINSGTSTTYADSVKARFTISRDNAKNTVYLQMNSMKPDDTAVYSCSATLEGGWWATYGSDYWGRGTQVTVSS” the value was “low polyreactivity”.

On to “QVQLVESGGGLVQAGGSLRLSCAASGLNFSHYTMGWYRQAPGKERELVAAITSSGGSTYYADSVKGRFTISRDNGKNTVYLQMNSLKPVDTAVYYCNKALTSKDYPVRTVERDYWGQGTQVTVSS”, for which the “polyreactivity (PSR sort gate)” value is recorded as “low polyreactivity”.

For “QVQLVESGGGLVQAGGSLRLSCAASGLNFTYNAMGWSRQAPGKESELVAAITRSGGSTYYADSVKGRFTISRDNAKNTVYLQMNSLKPEDTAVYYCAKDDSAYSKYGYWGQGTQVTVSS”, the “polyreactivity (PSR sort gate)” value is “low polyreactivity”. The result for “QVQLVESGGGLVQAGGSLRLSCAASGLNFYSNAMGWYRQAPGKERELVARISTGGSTYADSVKGRFTISRDNAKNTVYLQMNSLKPEDTAVYYCAKLPPRGIDDEYWGQGSQVTVSS” reads “low polyreactivity”; that for “QVQLVESGGGLVQAGGSLRLSCAASGLNLAQYVMGWYRQAPGKERELVAAITWRGGGTYYADSVKGRFTISRDNAKYTVYLQMNSLKPEDTAVYYCNAVLYDGYVYNPGSTDDVDYWGQGTLVTVSS”, “high polyreactivity”; that for “QVQLVESGGGLVQAGGSLRLSCAASGLSCYPYAMGWYRQAPGKEMELVAAITSGDSTYYADSVKGRFTISRDNAKNTVYLQMNSLKPVDTAVYYCAKPDWVEVVTDFEYWGQGTQVTVSS”, “low polyreactivity”. For “QVQLVESGGGLVQAGGSLRLSCAASGLSSLRMLWDGIDRRLGKKGSWLPLITSGGDSTNYADSVKGRFTISRDIAKNTVYLQMNSLKPEDTAVYYCAADLDYPYGYWGQGTQVTVSS” the value was “low polyreactivity”; for “QVQLVESGGGLVQAGGSLRLSCAASGLTCGKYAMGWYRQAPGKERELVAAINSSGGSTYYADSVKGRFTISRDNAKNTVYLQMNSLKPEDTAVYYCAVAVYRLIYFEYNYWGQGTQVTVSS”, “low polyreactivity”; for “QVQLVESGGGLVQAGGSLRLSCAASGLTFAANAMGWYRQAPGKERELVAAITSSGGSTYYADSVKGRFTISRDNAKNTVYLQMNSLKPEDTAVYYCAARASRPRFGYWGQGTLVTVSS”, “high polyreactivity”. The result for “QVQLVESGGGLVQAGGSLRLSCAASGLTFAFNVMGWYRQAPGKERELVAAISASGASTYYADSVKGRFTISRDTAKNTVYLQMNSLKPEDTAVYYCAALGYCFSYRYDYWGQGTQVTVSS” reads “high polyreactivity”; that for “QVQLVESGGGLVQAGGSLRLSCAASGLTFAFYAMGWYRQAPGKEMELVARIRTSAITYYADSVKGSFTISRDNAKNTVYLQMNSLKPEDTAVYYCAAEEGRVFSGGYDYWGQGTQVTVSS”, “high polyreactivity”.

With “QVQLVESGGGLVQAGGSLRLSCAASGLTFAGNAMGWSRQAPGTERELVAAITWTGDRTYYADSVKGRFTISRDNAKNTVYLQMNCLKPEDTAVYYCAAQVRSLYSPGWYYYWGQGTQVTVSS”, the “polyreactivity (PSR sort gate)” value was “high polyreactivity”.

In the case of “QVQLVESGGGLVQAGGSLRLSCAASGLTFAINTMGWYRPAPGTERELVAAITGSGGSTYYADSVKGRFTISRDNAKNTVYLQMNSLKPEDTAVYDCAAELLYVQGYAMDYWGQGTQVTVSS”, the “polyreactivity (PSR sort gate)” value is recorded as “low polyreactivity”. The result for “QVQLVESGGGLVQAGGSLRLSCAASGLTFAKNAMGWYRQAPGKERELVAAITTGGSTYYADSVKGRFTISRDNAKNTVYLQMNSLKPEDTAVYYCAAQILVRHIPYYYWGQGTQVTVSS” reads “high polyreactivity”; that for “QVQLVESGGGLVQAGGSLRLSCAASGLTFANYVMGWYRQAPGKERELVAAISGGGGSTHYADSVKGRFTISRDNAKNTVYLQMNSLKPEDTAVYYCNADKYSVYGEHPYDYWGQGTQVTVSS”, “low polyreactivity”; that for “QVQLVESGGGLVQAGGSLRLSCAASGLTFANYVMGWYRQAPGKEREMVAAISRSGGSTYYADSVKGRFTISRDNAKYTVYLQMNSLKPEDTAVYYCAAAAWDPKGSRYDYWGQGTQVTVSS”, “low polyreactivity”.

Regarding “QVQLVESGGGLVQAGGSLRLSCAASGLTFAVYAMGVYRQAPGKEREVVAAINWSGGSTSYADSVKGRFTISRDNAKNTVYLQMNSLKPEDTAVYYCAAVPGSYSYWRVWYGYDYWGQGTQVTVSS”, the “polyreactivity (PSR sort gate)” value is reported as “high polyreactivity”. Regarding “QVQLVESGGGLVQAGGSLRLSCAASGLTFAYYAMGWYRQAPGKERELVAAISWNGGRTYYADSVKGRFTISRDNAKNSVYLQMNSLKPEDSAVYYCAAQVTSSFYWGQGTQVTVSS”, the “polyreactivity (PSR sort gate)” value was “high polyreactivity”.

Consider “QVQLVESGGGLVQAGGSLRLSCAASGLTFAYYAMGWYRQAPGKERELVAAITSSGTSTYYADSVKGRFTISRDNAKNTVYLQMNSQKPEDTAVYYCNARVYGYRYTYRMDYWGQGTQVTVSS”, for which the “polyreactivity (PSR sort gate)” value is on record as “high polyreactivity”. For “QVQLVESGGGLVQAGGSLRLSCAASGLTFDGNTMGWYRQAPGKERELVAAISFDGGNTYADSVKGRFTISRDNAKNTVYLQMISLKPEDTAVYYDYWGQGNQVTVSS” the value was “low polyreactivity”; for “QVQLVESGGGLVQAGGSLRLSCAASGLTFDKYTMGWYRQAPGKERELVARISTSGSRTYYADSVKGRFTISRDIAKNTVYLQMNSLKPEDTAVYYCNKDGWIRRRRGYDYWGQGTQVTVSS”, “high polyreactivity”; for “QVQLVESGGGLVQAGGSLRLSCAASGLTFDVYTMGWYRQAPGKEREFVAGITSGGSTDYADSVKGRFTISRDNAKNTVYLQMNSLKPEDTAVYYCNKPFPYYPDGPNGYDYWGQGTQVTVSS”, “low polyreactivity”. With “QVQLVESGGGLVQAGGSLRLSCAASGLTFDWYAMGWYRQAPGKERELVAAISWNGVSTDYADSVKGRFTISRDNAKYTVYLQMNRLKPEDTAVYYCAADPPWYLYVGFDYWGQGTQVNVSS”, the “polyreactivity (PSR sort gate)” value is “high polyreactivity”. On to “QVQLVESGGGLVQAGGSLRLSCAASGLTFDWYAMGWYRQAPGKERELVAAITSVGSTYYADSVKGRFTISRDNAKNTVYLQMNSLKPEDTAVYYCAVEGVMWSFWPYEYWGQGTQVTVSS”, for which the “polyreactivity (PSR sort gate)” value was “high polyreactivity”.

Consider “QVQLVESGGGLVQAGGSLRLSCAASGLTFDWYTMGWYRQAPGKERELVATINSGGSTDYADSVKGRFTISRDNAKNNVYLQMNSLKPEDTAVYYCNAEYGYSGVGDDYWGQGTQVTVSS”, for which the “polyreactivity (PSR sort gate)” value was “low polyreactivity”. For “QVQLVESGGGLVQAGGSLRLSCAASGLTFDWYTMGWYRQAPGKERELVATINSGGSTDYADSVKRRFTISRDNAKNTVYLQMNSLKPEDTAVYYCAAQPFVIDGGYRGDYWGQGTQVTVSS” the value was “low polyreactivity”; for “QVQLVESGGGLVQAGGSLRLSCAASGLTFDYYAMGWYRQAPGKERELVAAISASCSSTYYADSVKGRFTISRDNAKNTVYLQMNSLKPEDTAVYYCAAVTKSSVPGSRYDYWGQGTQVTVSS”, “high polyreactivity”.

The values are drawn from the nanobody polyreactivity screen of Harvey et al. (2022).
